This is an account of results in US20180009892A1 (EUREKA THERAPEUTICS, published 2018).

Experiment [1] deals with T1, human ROR2-ECD (human, UniProt Q01974 34-403).
T1 construct: extracellular domain; also called hROR2
Kind of experiment: phage antibody protein ELISA. The method, then: (§1) Binding specificities of the 45 phage antibodies were determined by protein ELISA against human ROR1-ECD, human ROR2-ECD and mouse ROR1-ECD (FIG. 12).
In general terms: An ELISA detects its analyte on a solid surface through an enzyme-linked reagent.

Experiment [2] addresses T2, human ROR1 extracellular domain (ECD) protein (human, UniProt Q01973 30-406).
T2 construct: also called hROR1-ECD; human ROR1-ECD
Put plainly: competitive phage ELISA: soluble ROR1 against ROR1-coated plate. The method, then:
Purified phage antibodies were first diluted serially in PBST buffer, and tested for binding to a ROR1-coated plate. The dilution that gave 50-80% saturating signal was used in the solution binding assay in which phage were first incubated with increasing concentration of ROR1 for one to two hours, and then transferred to a ROR1-coated plate for 10-15 minutes to capture the unbound phage.

Experiment [3] deals with T3, mouse ROR1-ECD (mouse, UniProt Q9Z139 30-406).
T3 construct: extracellular domain; also called mROR1
Put plainly: phage antibody protein ELISA. As to the method: as §1

The target of experiment [4] is T4, ROR1 extracellular domain Fc-fusion, dimer (human, UniProt Q01973 30-406).
T4 construct: also called ROR1 dimer; hROR1 dimeric ECD-Fc fusion protein; not shown: Fc part
Kind of experiment: SPR, immobilised ROR1 dimer, antibody injected, 1:1 model. The method, then:
(§2) The binding affinities of ROR1 extracellular domain dimer and monomer for anti-ROR1 antibodies were determined by surface plasmon resonance (SPR). ROR1 extracellular domain Fc-fusion, “dimer,” and ROR1 extracellular domain Fc fusion:Fc heterodimer, “monomer,” are the dimer and monomeric forms of ROR1 used for affinity analysis, respectively. Briefly, ROR1 dimer and monomer were directly immobilized to a CM4 chip using an amine coupling kit and 100 mM ethylenediamine in 100 mM Sodium Borate buffer, pH 8.0 as the blocking reagent. Approximately 100-150 RU of ROR1 dimer and monomer were immobilized on separate flow cells and an un-derivatized flow cell was used as a reference control. […] Dissociation was followed for 180 seconds. The association constant, dissociation constant, and affinity of each anti-ROR1 antibody was calculated using the Biacore T200 Evaluation Software 1:1 binding model.
(§3) Sensorgrams were normalized to 100 RU using the “binding stability point” at the end of the association phase but before the dissociation phase.
(SPR reads the build-up and loss of mass on a sensor chip optically.)

Experiment [5] concerns the target T5, ROR1 extracellular domain Fc fusion:Fc heterodimer, monomer (human).
T5 construct: Heterodimer of one ROR1 ECD-Fc chain and one Fc chain; also called ROR1 monomer; hROR1 monomeric ECD-Fc fusion protein; not shown: Fc part; Fc alone
Put plainly: SPR, immobilised ROR1 monomer, antibody injected, 1:1 model. As to the method: as §2, §3

The target of experiment [6] is T4, ROR1 extracellular domain Fc-fusion, …. Put plainly: SPR, immobilised ROR1 dimer, antibody injected, 1:1 model; apparent affinity. As to the method:
as §2, §3

Experiment [7] has the same target. Put plainly: SPR, immobilised ROR1 dimer, antibody injected, 1:1 model; second entry of 601-14. As to the method: as §2, §3
The target of experiment [8] is T5, ROR1 extracellular domain Fc fusion:Fc …. Kind of experiment: SPR, immobilised ROR1 monomer, antibody injected, 1:1 model; second entry of 601-14. As to the method:
as §2, §3

The target in experiment [9] is T4, ROR1 extracellular domain Fc-fusion, …. Kind of experiment: SPR, immobilised ROR1 dimer, antibody injected, 1:1 model; apparent affinity; second entry of 601-14. As to the method: as §2, §3

Changes are numbered by the printed parent chain.

T1 sequence (Q01974 34-403): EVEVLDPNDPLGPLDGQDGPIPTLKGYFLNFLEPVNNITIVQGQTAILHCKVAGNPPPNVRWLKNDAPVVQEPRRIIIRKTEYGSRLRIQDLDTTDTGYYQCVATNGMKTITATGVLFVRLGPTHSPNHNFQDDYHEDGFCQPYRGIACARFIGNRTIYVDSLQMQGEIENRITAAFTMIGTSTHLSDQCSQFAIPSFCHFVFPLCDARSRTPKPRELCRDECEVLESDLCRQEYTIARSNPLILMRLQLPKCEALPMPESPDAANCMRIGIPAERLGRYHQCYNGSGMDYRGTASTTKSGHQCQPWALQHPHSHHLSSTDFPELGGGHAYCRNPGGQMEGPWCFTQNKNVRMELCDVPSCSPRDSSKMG
T5 sequence (Q01973 30-406, one chain of several): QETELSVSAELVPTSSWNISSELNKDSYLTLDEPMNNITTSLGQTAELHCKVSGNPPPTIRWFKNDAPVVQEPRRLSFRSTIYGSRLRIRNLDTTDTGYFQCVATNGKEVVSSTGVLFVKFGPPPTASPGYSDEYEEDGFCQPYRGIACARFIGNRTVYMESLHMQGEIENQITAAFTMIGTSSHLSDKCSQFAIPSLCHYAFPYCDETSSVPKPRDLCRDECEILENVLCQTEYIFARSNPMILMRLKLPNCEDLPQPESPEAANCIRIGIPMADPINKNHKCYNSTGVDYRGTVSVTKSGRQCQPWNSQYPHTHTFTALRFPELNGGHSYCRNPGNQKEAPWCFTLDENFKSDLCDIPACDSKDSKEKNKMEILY
T2 sequence (Q01973 30-406 limits assumed): as the sequence (Q01973 30-406, one chain of several) above
T4 sequence (Q01973 30-406): as the sequence (Q01973 30-406, one chain of several) above
T3 sequence (Q9Z139 30-406): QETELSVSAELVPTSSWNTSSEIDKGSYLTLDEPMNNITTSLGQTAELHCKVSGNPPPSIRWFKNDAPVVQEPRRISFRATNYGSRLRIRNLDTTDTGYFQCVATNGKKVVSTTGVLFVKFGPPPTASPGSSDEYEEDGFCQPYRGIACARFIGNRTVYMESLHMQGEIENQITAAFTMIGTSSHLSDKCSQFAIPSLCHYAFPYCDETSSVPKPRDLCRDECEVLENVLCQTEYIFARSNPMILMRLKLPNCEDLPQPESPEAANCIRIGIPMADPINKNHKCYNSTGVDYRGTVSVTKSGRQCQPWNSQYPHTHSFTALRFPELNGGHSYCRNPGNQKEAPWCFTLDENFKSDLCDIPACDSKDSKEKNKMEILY

B1: P601-57 (scFv, V domains shown)
VH: EVQLVQSGAEVKKPGSSVKISCKASGGAFTNFGISWVRQAPGQGLEWMGWISTYNSETNYAQKLQGRVTMTTDTSTSTAYMELRSLRSDDTAVYYCARDYYSDSSGYWDDAFDIWGQGTLVTVSS
VL: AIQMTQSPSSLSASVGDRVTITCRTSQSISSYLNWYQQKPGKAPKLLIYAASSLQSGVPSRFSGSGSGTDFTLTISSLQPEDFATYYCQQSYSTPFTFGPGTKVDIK
In the case of B1, the binding result in [1] was “no binding”. Further, the IC50 (as a rule, the concentration that inhibits the measured activity by half) in [2] was determined as 4.08 nM.

B2: P601-28 (scFv, V domains shown)
VH: EVQLVQSGGDLVQPGGSLRLSCAASGFTFSSYSMNWVRQAPGKGLEWVSSISSSSSYIYYADSVKGRFTISRDNAKNSLYLQMNSLRAEDTAVYYCARGLGGWTHDAFDIWGQGTTVTVSS
VL: QSALTQPASVSGSPGQSITISCTGTSSDVGGYNYVSWYQQHPGKAPKLMIFDVSNRPSGVSNRFSGSKSGNTASLTISGLQAEDEADYYCSSYTSSSTLFGGGTKLTVL
For B2, the values for the binding result in experiment [3] and in experiment [1] were “binds” and “no binding”, respectively. The IC50 in experiment [2] amounted to 8.05 nM.

B3: P601-56 (scFv, V domains shown)
VH: QLQLQESGPGLVKPSETLSLTCTVSGGSISSSSYYWGWIRQPPGKGLEWIGSIYYSGSTYYNPSLKSRVTISVDTSKNQFSLKLGSVTAADTAVYYCARHDGTDAFDIWGQGTTVTVSS
VL: QSVLTQPASVSGSPGQSITISCTGTSSDFGDYDYVSWYQQHPGKAPKLMIYDVSDRPSGVSNRFSGSKSGNTASLTISGLQAEDEADYFCSSLTTSSTLVFGGGTKLTVL
For the molecule B3, the binding result in [3] and in [1] was “no binding” throughout. In addition, in experiment [2], the IC50 was 1.85 nM.

B4: P601-1 (scFv, V domains shown)
VH: EVQLVESGGGLVKPGGSLRLSCAASGFTFSDYYMSWIRQAPGKGLEWVSYISDSTNTIYYADSVKGRFTVSRDNPKNSLYLQMISLRAEDTAVYYCARAVGAGEGFDHWGQGTLVTVSS
VL: not shown
For B4, the binding result in [3] was “binds”; in experiment [1], “no binding”. This molecule came in with an IC50 in experiment [2] of 0.11 nM.

B5: P601-51 (scFv, V domains shown)
VH: not shown
VL: QSALTQPASVSGSPGQSITISCTGTSSDFGDYDYVSWYQQHPGKAPKLMIYDVSDRPSGVSNRFSGSKSGNTASLTISGLQAEDEADYFCSSFTTSSTLVFGGGTKLTVLG
Consider B5, for which the binding result in [3] and in [1] was “no binding” each time. In addition, the IC50 in experiment [2] turned out to be 0.62 nM.

B6: P601-37 (scFv, V domains shown)
VH: EVQLVQSGAEVKKPGASVKVSCKASGYTFNNYGFSWVRQAPGQGLEWMGWISVYNGNTNYAQKLQGRVTMTTDTSTSTAYMELRSLRSDDTAVYYCARDYYSDSSGYWDDAFDIWGQGTMVTVSS
VL: AIRMTQSPSSLSASVGDRVTITCQASQDISNYLNWYQQKPGKAPKLLIYAASSLQSGVPSRFSGSGSGTDFTLTISSLQPEDFATYYCQQSYSTPFTFGPGTKVDIK
In the case of B6, the binding result is on record as “binds” in experiment [3] and “no binding” in experiment [1]. Besides, the IC50 in experiment [2] is 27.9 nM.

B7: P601-43 (scFv, V domains shown)
VH: B6 VH with E1Q, V5Q, K19R, T28S, N30G, Y32N, F34I, S35T, V53T, M120T
VL: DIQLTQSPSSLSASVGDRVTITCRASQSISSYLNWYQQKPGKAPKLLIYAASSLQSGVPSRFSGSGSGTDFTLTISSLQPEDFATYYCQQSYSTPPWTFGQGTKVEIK
B7: in [1], the binding result is reported as “no binding”. In [2], this molecule showed an IC50 of 0.23 nM.

B8: P601-14 (scFv, V domains shown)
VH: QVQLVQSGAEVKKPGESLKISCKDSGYSFTNYWLGWVRQMPGKGLEWMGIIYPGDSDTRYSPSFRGQVTISADKSISTAYLQWSSLKASDTAMYYCARLNLATHTAFDIWGQGTTVTVSS
VL: QSVLTQPASVSGSPGQSITISCTGTSSDVGGYNYVSWYQQHPGKAPKLMIYDVSNRPSGVSNRFSGSKSGNTASLTISGLQAEDEADYYCSSYTSSSTLWVFGGGTKLTVLG
B8: the binding result in experiment [3] is “binds”; in experiment [1] it was “no binding”. In addition, the IC50 in experiment [2] was found to be 3.22 nM.

B9: Antibody 601-14 (antibody, V domains shown)
VH: B8 VH
VL: B8 VL
As for B9, the koff (as a rule, the rate constant with which the complex falls apart) in experiment [4] turned out to be 0.00066 s⁻¹; in [5] it was 0.0013 s⁻¹; in [7] it was 0.0015 s⁻¹; in experiment [8], 0.0021 s⁻¹. Further, the kon (as a rule, the rate constant with which the complex forms) in [4] is 2.7e+06 M⁻¹ s⁻¹; in experiment [5], 3.2e+06 M⁻¹ s⁻¹; in experiment [7] it was 2.4e+06 M⁻¹ s⁻¹; in experiment [8] it was 2.4e+06 M⁻¹ s⁻¹. In addition, the Kd was found to be 0.4 nM in experiment [5], 0.2 nM in experiment [6], 0.8 nM in experiment [8] and 0.6 nM in [9].
